The nature of this data set: soluble on expression in E. coli; label from the status in PepcDB or PDB records.
Take “MGSDKIHHHHHHMALRLRKENDLWVQTFKAAGQSHLHRVEEEVFLGKCDQEPDLNLELYKDNKAVTDLITQALGSEVEKLSLQFETDVQRTYHVFEADDTAIEVCLDDGAVKTATAQSKICEVEFELKQGAVKTLIQFAQQWINRYELWLDVRSKAERGNLLALGQAASPAVHAKNLNLDKNISAEQALKKIVENCLGQFLPNMAAIADGVAEAEHIHQARVSLRRLRSALKHFSAWSDELNPVWEEQIAELFRQLGDTRDEDAIRTEILPMIVQHGSPELLLPISEQPLKDLATLFKSADTIKLILALLAFAYSEEDNQNGKGKLKKQIGKSLDKLHHQVVSNADHFTELEVTEQHRTRKKAKQLRYCIEFISSLYPRKNIQQFLKQLQPVQNTLGLYNDLFIAEDLFNKAIEHDPHFWFALGWVKAKQPYLQNQSAEALQKFKQAKTFW”: the “soluble on expression in E. coli” value is given as “not soluble”.

On to “MQLLITGGTGLIGRHLIQRLQLLSHHITVLTRDPERARGVLGNQVEYWSTLSNITSLNDFDGVINLAGEPIADKRWTPQQKQRLAQSRWSITEQLATLIKASSEPPTVFISGSAVGYYGDQGEALVTEGESPVDEFTHHLCTRWEALAQSAESDKTRVCLLRTGIVLSAQGGALAKMLPIFRLGLGGPMGSGKQYMPWIHIDDMVNGIIYLLDQPILRGPFNMVAPYPVHNEQFSAMLAHVLDRPGFLRAPAFAMKLLMGEASTLVLGGQRAIPQRLEAAGFGFRFFELEEALQDVTKKPGLEHHHHHH”, for which the “soluble on expression in E. coli” value was “soluble”. In the case of “MAHHHHHHMLTSENPAERAGQAGQAIRPPPSPVPDGTRPSDSSRGDSSVSPLSTTGISSSSALDAPIVQSTQPSEKGLRSETISLGTALPNEQPKERSESKAKQGSSTSEEVAESPDDSGDAVEKEKKGDVGPKATTSLSSTTSNPPVTQTTPRASSAEPPPTETELQTGEETSTENVTITKRNNTTTPGDSDGSTAVSHTTSPLLLLLVVVECAAAAAVVAA” it was “soluble”; in that of “STKTNVVEVLNKQVANWNVLYVKLHNYHWYVTGPHFFTLHEKFEEFYNEAGTYIDELAERILALEGKPLATMKEYLATSSVNEGTSKESAEEMVQTLVNDYSALIQELKEGMEVAGEAGDATSADMLLAIHTTLEQHVWMLSAFLK”, “soluble”; in that of “MDKLESNKKAPLYQQLYDAILNKVRSGEYQVGEKIPSEEQLMTIYGVSRVTVRNAIKQLVDENILIKRHGKGTFVSMPSYVESMTAGGSFTESGLKMNRKPTTKIISICLKKATGHVAEALGVEKATEVIVIERLRSLDNMPAIFEIDYFRKEDQFMLDLELTDTSLLDILRQYRGVIASYFDNIIEIALADEKLAEALAISEEEALVKINQTVVDNDNQILYFNEQYILSESYKVAIRSYNK”, “not soluble”.

Turning to “MAHHHHHHSLSILVTRPSPAGEELVSRLRTLGQVAWHFPLIEFSPGQQLPQLADQLAALGESDLLFALSQHAVAFAQSQLHQQDRKWPRLPDYFAIGRTTALALHTVSGQKILYPQDREISEVLLQLPELQNIAGKRALILRGNGGRELIGDTLTARGAEVTFCECYQRCAIHYDGAEEAMRWQAREVTMVVVTSGEMLQQLWSLIPQWYREHWLLHCRLLVVSERLAKLARELGWQDIKVADNADNDALLRALQEG”, the “soluble on expression in E. coli” value was “soluble”. In the case of “MGSDKIHHHHHHVCRNCSNKQKIRKNSMDYTDISILHTNDMHSYMENFPKKAQLIANIRARNEKEGVPTFVFDSGDLFSGNIFFNMYRGVKEIELMNQIGCQAMTLGNHEFDHGDELISRLDDYAQFPIVSSNLRYQDVEVADELVPLEDVLEFDMNGKNLYVLGLTTLETQEVASPSENVIFEDHKQALRRLVDQIVSQNPSAHLVLLSHLGYDEDVHLAKDFPELNVILGGHTHTILKQPSQIGGVSICQAGQYGRFVGHLSLRCFADGRREVQAYDLIEVEKLTQEDRAVKAIIDQMKSERDAAFSKPIAILPQALDGERDSIRQGLSTLAPVICQALFEQASQLGLQADGAVINGFGIRASLSAGPIFYSDLVKVLPFSKRVLLVRIKGRDLLSSLQTGLHPQMWGIVQSGEDLLVNGRAVESDKDYQIVTNSFVWSGKDNYDDFHKAEIVQDLGLDIDIISEFFKRQYGG” it was “not soluble”; in that of “SLHAQTFHSDSLLSQEEAAAAGDRRPAPDTWIYPLIQMKPFEIQIDEIVTETLLMEAERGAKVFLTTGYFNLTQAYMDLVLGTRAEYQILLASPEVNGFFGAKGVAGAIPAAYVHIERQFYSEVCSLGQQDRVQLQEYWRRGWTFHAKGLWLYLAGSSLPCLTLIGSPNFGYRSVHRDLEAQIAIVTESRSLQQQLHQEQEQLYLRSGVVTSATFEQPGRQVKLWVKMVTPLIKNFF”, “soluble”. In the case of “MSEKGFSGGCQCGAVRFHAGKLGRPSICHCRMCQKHFGNFFGALVTADQAHLAWTRGQPTLFRSSARIHRGFCNKCGTPLTYHYPGGVEIAIGAFDHPEQIEPQAQVNIHKRMPWIEQLFSKPAIEQSVDEAEITSYQHPDHDTATWPPEGP” it was “not soluble”. For “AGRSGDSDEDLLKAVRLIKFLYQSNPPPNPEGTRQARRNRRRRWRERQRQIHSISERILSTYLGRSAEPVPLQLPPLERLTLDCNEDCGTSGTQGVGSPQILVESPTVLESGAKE” the value was “soluble”; for “MAHHHHHHMNGTRRFSAAPVNFDRFIALAHSYSRSLSPDRELDQMLRPFQGRAAASTSTATRESTASRVATPQRRHQQMRNGELIDKGSVSTEAEVGKPYWGTTESVAMTRSTTASNTVFSTRAATSTSRTVSGGAAETTSAVSTRSSYLVHSSCPVGEETQELGSGSYSADEVDPLLQAAMQLGSPLYDPVKRQFVCWQLHALEKRPRAAYGDVEGVSCDFCGHTDWLEGVPERATSSPSASATVANADEGKMDTHAPSAAASFTAHARFFYNCSACQVDVCQACLEEVRSDERLHVPCFQCQRCGGYETRQNAPLHRCAEVTRISDDEGSTGVQALLTSPRSNVDASQALPAAPATSSPKYRGVPVGRPVRLGLCRRFQQAVEAVAAPDTEIAAHAGKIANSTPHRKRKRASPEAALVPKQRSGKTTNDTAEVFRVSDVSDKSCRKVRRASASALPKPAPPKQEADDADGDASRALVEAALLPFARYEVHLTPRTAEEVGEVGRIAREQHLVCSPLPSLAKTCVFYFTTRLAAETCVDRATAASLDAILKQSVTPVCRT”, “not soluble”; for “GERIDIRISPYLQDLFDAARADGVYPIVASGYRTTEKQQEIMDEKVAEYKAKGYTSAQAKAEAETWVAVPGTSEHQLGLAVDINADGIHSTGNEVYRWLDENSYRFGFIRRYPPDKTEITGVSNEPWHYRYVGIEAATKIYHQGLCLEEYLNTEK”, “not soluble”.

Regarding “MSDVAETVVAQEPEVVEPVEEKPTETGSDDVVVIDEKTSEQNGEKTEETQAEATEEKNETEAEEADKDKAVENGEAKDTNGNDRKRVSSAHEEAPVADAEEDAPLTKKSKVEDEVDVAASGDAPAVAAE”, the “soluble on expression in E. coli” value is listed as “soluble”.

Values taken from the DeepSol protein solubility set.
